Assay results as given in the DeepSol protein solubility set.

experiment: soluble on expression in E. coli; label from the status in PepcDB or PDB records

Sequence	soluble on expression in E. coli
MGSDKIHHHHHHLSSPQYRINMQKYVFRIHPLNTYQLSFFPNYEVNMYKKLNPMIGDRVYRSKGLVMHVGVMVDRDLVAHNSPDNNVEVISMEHFSQGKKVELKRSIGVDPTALKAQLQRISEENRRYCPISFNCEHFANELLGTKDGSEQLLAALLVGSFGLTCKNKWLGLATAGATGLLLCNGLRKYSTT	not soluble
SEVDINGDSRSTLTTLPLPVAEGSSPGKAEAEKPRCSSTPCSPMRRTVSGYQILHMDSNYLVGFTTGEELLKLAQKCTGGEDSKGEAMPALRAKQLDTGLARSSRLYKTRSRYYQPYEIPAVNGRRRRRMPSSGDKCTKPLPYEPYKALHGPLPLCLLKGKRAHSKSLDYLNLDKMNIKEPADTEVLQYQLQHLTLRGDRVFARNNT	not soluble
AEVPLPQLRAYTVDASWLQPMAPLQIADHTWQIGTEDLTALLVQTPDGAVLLDGGMPQMASHLLDNMKARGVTPRDLRLILLSHAHADHAGPVAELKRRTGAKVAANAESAVLLARGGSDDLHFGDGITYPPANADRIVMDGEVITVGGIVFTAHFMAGHTPGSTAWTWTDTRNGKPVRIAYADSLSAPGYQLQGNPRYPHLIEDYRRSFATVRALPCDVLLTPHPGASNWDYAAGARAGAKALTCKAYADAAEQKFDGQLAKETAGAR	soluble
MNNAHEENISSVTGFKSTSGSPAIGSSLPGRSGEGRSSSSSSGSTALLAVVNSTLKAIFSNTLDSIFHMVCTDSDKRLSSEFHCLQSMFNLQLFVNLGCPLS	soluble
WSNNYAVDCPQHCDSSECKSSPRCERTVLDDCGCCRVCAAGRGETCYRTVSGMDGMKCGPGLRCQPSNGEDPFGEEFGICKDCPYGTFGMDCRETCNCQSGICDRGTGKCLKFPFFQYSVTKSSNRFVSLTEHDMASGDGNIVREEVVKENAAGSPVMRKWLNPR	soluble
MKNLIAELLFKLAQKEEESKELCAQVEALEIIVTAMLRNMAQNDQQRLIDQVEGALYEVKPDASIPDDDTELLRDYVKKLLKHPCQ	not soluble
SSYADFVWFLISEEDKRNPTSIEYWFRCMDVDGDGILSMYELEYFYEEQCERMEAMGIEPLPFHDLLCQMLDLVKPASDGRITLRDLKRCRMAHIFYDTFFNLEKYLDHEQRDPFAVQKDVENDGPEPSDWDRFAAEEYEALVTEESAQVQLQEGSFEDYESDEPVSPSELGNKGNKIVTSSLSEKCGKLQSVDEE	soluble
MSDTDYYRELEASEQRLSDSRAANRESIRTVEDKISDEREKHVARMSEKEKKHHENMLRLTNSSAAERKSAEEAHRKSVEQLKEKHKNETEKLETQIKEIKEKGEEDVRKVELQRANLEKQRTEALDIHLETMKELNEKKFEEIRQQRKEQNILNVEEMKALSTRNAIEHETQMGLIDDTQNMILSRESRQSSLTLIGHMMKSIESGDAISSLLQEMKTYCENRDQYSPTDIKIMKNISADIGKHRAKCDFQRQQLISKINLESNADPQVVDGCFEMSMKMKCCVESSDLRSVCTTLPLLAAQQEHARISGIINKIGSLTDNLDAINVEIKTKSIQWSRRITNALTNTTGN	not soluble
MTAVVNIAAYKFVSIANPADLREPMLEQAGQRQLKGTVLLAPEGINLFLAGAADAIEGFLRWLRADARFADLQAKYSESARMPFRKLLVKVKREIIRMDHPAIRPEAGRAPAVDAATLRRWLAQGRDDQGRELVMLDTRNAFEVEVGTFRGALDWRIERFTQFPQAVRDNQAALAGKTVVSFCTGGIRCEKAAIYMAEAGIEHVYQLEGGILKYFEETDGAGFDGACFVFDERVALDAALAPQALEHHHHHH	soluble
MGSDKIHHHHHHVEMPGTTEPLGKMVKVEGKKDEHKGDFFLTTVQIARANLATMIYSHFNSFTSIYSEQEMTGGLNDAQFNRVNQFYMETAQNTAIYQAFKLANKPYELKYEGVYVLDIAKNSTFKNKLELADTITAVNGQQFTSSADMIAYVSKQKVGDSVTIEYTRIDGTKHKSTGKYIKIANGKTGIGISLVDHTEVVTTPKVTVNAGSIGGPSAGMMFTLEIYSQLTGKDLRNGREIAGTGTIEHDGSIGQIGGVDKKVATASKEGAKVFLVPDSGTKKESSNNYLGAKTAAKKLKTKMKIVPVKTIQDALDYLEK	not soluble
MDGRRLVVRHGADTSVDTVWNILTDTDCWADWGPSVTAVETATRYIDDGTTGRVCVAGAVWLPFEVTACTPYRWTWTVARLPATGHFVEERAGGSVVGFEIPPLATGYAPVCARACQRIATLAQQRDALEHHHHHH	soluble
